{"source": "paper PMC6416337", "biological_target": "14-3-3λ (UniProt P48349)", "test": "GST pull-down, anti-14-3-3 blot", "details": "reference: SOS2-JD without PKS5; sites S294", "data": [{"substance": "SOS2 junction domain (SOS2-JD) (from UniProt Q9LDI3) SOS2-JD incubated with PKS5 and ATP", "values": [{"measurement": "binding against the reference", "value": "stronger"}]}]}
